Consider 7 molecules from patent US20180155451A1 (published 2018).

The target of test [1] is T1, FcγRIa extracellular domain with C-terminal His tag (human, UniProt P12314 16-292).
T1 construct: extracellular domain; Soluble receptor expressed in FreeStyle293 cells and used as analyte in Biacore; also called FcgRI; 1a; not shown: His tag at the C terminus
The experiment in a line: SPR Biacore, relative binding amount. On the technique in general: SPR reads the build-up and loss of mass on a sensor chip optically.

Test [2] has as its target T2, FcγRIIb extracellular domain with C-terminal His tag (human, UniProt P31994 43-217).
T2 construct: extracellular domain; Soluble receptor expressed in FreeStyle293 cells and used as analyte in Biacore; also called FcgRIIb; 2b; not shown: His tag at the C terminus
T2 sequence (looked up): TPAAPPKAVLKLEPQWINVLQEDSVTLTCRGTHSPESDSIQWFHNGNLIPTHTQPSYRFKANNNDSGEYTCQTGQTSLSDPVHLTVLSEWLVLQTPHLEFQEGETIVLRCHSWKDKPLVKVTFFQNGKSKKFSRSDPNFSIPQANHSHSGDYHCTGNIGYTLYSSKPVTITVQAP
The experiment in a line: SPR Biacore, relative binding amount.

The target of test [3] is T3, FcγRIIa R (FcγRIIa, allotype R: Arg at position 131) extracellular domain with C-terminal His tag (human, UniProt P12318 34-217).
T3 construct: extracellular domain; also called FcgRIIa R; 2aR; not shown: His tag at the C terminus
T3 sequence (looked up): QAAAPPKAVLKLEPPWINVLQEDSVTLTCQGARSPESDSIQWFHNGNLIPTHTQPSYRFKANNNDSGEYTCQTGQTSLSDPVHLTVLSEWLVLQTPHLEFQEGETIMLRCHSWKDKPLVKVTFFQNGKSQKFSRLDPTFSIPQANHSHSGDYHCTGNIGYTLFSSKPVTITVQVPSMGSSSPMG
Put plainly: ratio He/Con_2aR : He/Con_2b (FcgRIIa R over FcgRIIb), SPR Biacore. The protocol:
The heterodimerized antibodies He Abs in which one of the H chains was introduced with an alteration were assayed for their binding activities to each activating FcγR and inhibitory FcγR according to the method described in Example 4. […] The activating FcγRs in FIGS. 26, 27, 28, and 29 are FcγRIa, FcγRIIa (R), FcγRIIa (H), and FcγRIIIa, respectively.
Analysis of interaction between objective antibody and the FcγR was carried out using Biacore T100 (GE Healthcare). HBS-EP+ (GE Healthcare) was used as the running buffer, and the measurement temperature was set to 25° C. Chips produced by immobilizing the antigen peptide by the amine coupling method to a Series S Sencor Chip CM5 (GE Healthcare), or alternatively, chips produced by allowing preliminarily biotinylated antigen peptides to interact with and immobilize onto a Series S Sensor Chip SA (certified) (GE Healthcare) were used. Antibodies of interest were captured onto an antigen peptide-immobilized chip, and allowed to interact to each FcγR diluted with running buffer. To regenerate and repeatedly use the chip, the antibodies captured on the chip were washed off by reacting 10 mM glycine-HCl, pH 1.5.

Test [4] deals with T3, FcγRIIa R (FcγRIIa, allotype R: Arg at …). The experiment in a line: SPR Biacore, antibody captured, FcgR analyte; vs HeCon Ab GpH7-A5/GpH7-B3/GpL16-k0 = 100.

T1 sequence (P12314 16-292): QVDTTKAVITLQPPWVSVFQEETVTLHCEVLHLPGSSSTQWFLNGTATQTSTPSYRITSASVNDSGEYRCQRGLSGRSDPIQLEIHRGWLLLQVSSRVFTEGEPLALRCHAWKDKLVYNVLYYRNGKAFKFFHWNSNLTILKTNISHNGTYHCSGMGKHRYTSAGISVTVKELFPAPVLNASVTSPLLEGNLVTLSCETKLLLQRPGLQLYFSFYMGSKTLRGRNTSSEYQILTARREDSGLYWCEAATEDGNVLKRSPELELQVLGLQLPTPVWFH

B1: heterodimerized antibody GpH7-A5/GpH7-B3 variant T335_11K/GpL16-k0 (antibody, human IgG1, kappa)
heavy 1: not shown
heavy 2: not shown
light: DIVMTQSPLSLPVTPGEPASISCQASESLVHSNRNTYLHWYLQKPGQSPQLLIYKVSNRFSGVPDRFSGSGSGTDFTLKISRVEAEDVGVYYCSQNTHVPPTFGQGTKVEIERTVAAPSVFIFPPSDEQLKSGTASVVCLLNNFYPREAKVQWKVDNALQSGNSQESVTEQDSKDSTYSLSSTLTLSKADYEKHKVYACEVTHQGLSSPVTKSFNRGEC
notes: Substitution in only one H chain (GpH7-B3 side); also called He Ab
Take B1: the He/Con_1a in test [1] is 111 % of GpH7-A5/GpH7-B3/GpL16-k0 (=100). In addition, in test [2], the He/Con_2b is 91 % of GpH7-A5/GpH7-B3/GpL16-k0 (=100).

B2: heterodimerized antibody GpH7-A5/GpH7-B3 variant T335_05P/GpL16-k0 (antibody, human IgG1, kappa)
heavy 1: not shown
heavy 2: not shown
light: DIVMTQSPLSLPVTPGEPASISCQASESLVHSNRNTYLHWYLQKPGQSPQLLIYKVSNRFSGVPDRFSGSGSGTDFTLKISRVEAEDVGVYYCSQNTHVPPTFGQGTKVEIERTVAAPSVFIFPPSDEQLKSGTASVVCLLNNFYPREAKVQWKVDNALQSGNSQESVTEQDSKDSTYSLSSTLTLSKADYEKHKVYACEVTHQGLSSPVTKSFNRGEC
notes: as for B1
In the case of B2, the He/Con_1a in test [1] is 106 % of GpH7-A5/GpH7-B3/GpL16-k0 (=100). Moreover, the He/Con_2b in test [2] was 99.9 % of GpH7-A5/GpH7-B3/GpL16-k0 (=100).

B3: heterodimerized antibody GpH7-A5/GpH7-B3 variant I336_03V/GpL16-k0 (antibody, human IgG1, kappa)
heavy 1: not shown
heavy 2: not shown
light: DIVMTQSPLSLPVTPGEPASISCQASESLVHSNRNTYLHWYLQKPGQSPQLLIYKVSNRFSGVPDRFSGSGSGTDFTLKISRVEAEDVGVYYCSQNTHVPPTFGQGTKVEIERTVAAPSVFIFPPSDEQLKSGTASVVCLLNNFYPREAKVQWKVDNALQSGNSQESVTEQDSKDSTYSLSSTLTLSKADYEKHKVYACEVTHQGLSSPVTKSFNRGEC
notes: as for B1
As for B3, the He/Con_1a in test [1] is 105 % of GpH7-A5/GpH7-B3/GpL16-k0 (=100). Also, the He/Con_2b in test [2] was 90.3 % of GpH7-A5/GpH7-B3/GpL16-k0 (=100).

B4: heterodimerized antibody GpH7-A5/GpH7-B3 variant T335_06M/GpL16-k0 (antibody, human IgG1, kappa)
heavy 1: not shown
heavy 2: not shown
light: DIVMTQSPLSLPVTPGEPASISCQASESLVHSNRNTYLHWYLQKPGQSPQLLIYKVSNRFSGVPDRFSGSGSGTDFTLKISRVEAEDVGVYYCSQNTHVPPTFGQGTKVEIERTVAAPSVFIFPPSDEQLKSGTASVVCLLNNFYPREAKVQWKVDNALQSGNSQESVTEQDSKDSTYSLSSTLTLSKADYEKHKVYACEVTHQGLSSPVTKSFNRGEC
notes: as for B1
On to B4, for which the He/Con_1a in test [1] is 107 % of GpH7-A5/GpH7-B3/GpL16-k0 (=100). Further, the He/Con_2b in test [2] is 99.4 % of GpH7-A5/GpH7-B3/GpL16-k0 (=100).

B5: heterodimerized antibody GpH7-A5/GpH7-B3 variant K334_09D/GpL16-k0 (antibody, human IgG1, kappa)
heavy 1: not shown
heavy 2: not shown
light: DIVMTQSPLSLPVTPGEPASISCQASESLVHSNRNTYLHWYLQKPGQSPQLLIYKVSNRFSGVPDRFSGSGSGTDFTLKISRVEAEDVGVYYCSQNTHVPPTFGQGTKVEIERTVAAPSVFIFPPSDEQLKSGTASVVCLLNNFYPREAKVQWKVDNALQSGNSQESVTEQDSKDSTYSLSSTLTLSKADYEKHKVYACEVTHQGLSSPVTKSFNRGEC
notes: as for B1
As for B5, the He/Con_1a in test [1] was 106 % of GpH7-A5/GpH7-B3/GpL16-k0 (=100). For the same molecule, the He/Con_2b in test [2] was 94.8 % of GpH7-A5/GpH7-B3/GpL16-k0 (=100).

B6: heterodimerized antibody GpH7-A5/GpH7-B3 variant K334_01G/GpL16-k0 (antibody, human IgG1, kappa)
heavy 1: not shown
heavy 2: not shown
light: DIVMTQSPLSLPVTPGEPASISCQASESLVHSNRNTYLHWYLQKPGQSPQLLIYKVSNRFSGVPDRFSGSGSGTDFTLKISRVEAEDVGVYYCSQNTHVPPTFGQGTKVEIERTVAAPSVFIFPPSDEQLKSGTASVVCLLNNFYPREAKVQWKVDNALQSGNSQESVTEQDSKDSTYSLSSTLTLSKADYEKHKVYACEVTHQGLSSPVTKSFNRGEC
notes: as for B1
In the case of B6, the He/Con_1a in test [1] is 104 % of GpH7-A5/GpH7-B3/GpL16-k0 (=100). Besides, the He/Con_2b in test [2] is 92.5 % of GpH7-A5/GpH7-B3/GpL16-k0 (=100).

B7: GpH7-A5/GpH7-B3 variant G237_11K/GpL16-k0 (antibody, human IgG1, kappa)
heavy 1: not shown
heavy 2: not shown
light: DIVMTQSPLSLPVTPGEPASISCQASESLVHSNRNTYLHWYLQKPGQSPQLLIYKVSNRFSGVPDRFSGSGSGTDFTLKISRVEAEDVGVYYCSQNTHVPPTFGQGTKVEIERTVAAPSVFIFPPSDEQLKSGTASVVCLLNNFYPREAKVQWKVDNALQSGNSQESVTEQDSKDSTYSLSSTLTLSKADYEKHKVYACEVTHQGLSSPVTKSFNRGEC
notes: He Ab: alteration in the GpH7-B3 H chain only; also called He Ab
With B7, the “He_2aR/2b (IIaR/IIb)” value in test [3] worked out at 1.9. Also, the He/Con_2aR in test [4] is 17.1 control = 100.
